Results from patent US20230183338A1.

Biological target: VEEV p62-E1 (Venezuelan equine encephalitis virus, TrD strain) (UniProt P09592)
Assay: surface plasmon resonance (Biacore T200), […]

HRV-cleaved monovalent LDLRAD3(D1) (from UniProt A2AR95 18-70) (receptor)
Kd: 209 nM
